# Source: article PMC9482650, “Quantitative fragmentomics allow affinity mapping of interactomes” (Nature Communications, 2022)
# B1: FAM71C, Q8NEG0 (peptide)
# chain: STYCDYTIEI
# B2: FAM167B, Q9BTA0 (peptide)
# chain: NISARRFTLC
# Target: SCRIB_3, Q14160
# Assay: holdup assay
# Design: key: below the threshold = too weak to quantify, mostly under pKd 3.1 to 4
# Settings: plain residues with an end cap or a label only (N-terminal biotin on a linker: ado-ado)
# Chain of SCRIB_3, Q14160 (Q14160 999-1103): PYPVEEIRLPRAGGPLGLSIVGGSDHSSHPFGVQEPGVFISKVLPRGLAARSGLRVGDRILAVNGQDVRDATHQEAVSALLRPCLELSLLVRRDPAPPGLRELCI
row,pKd,Binder
1,4.06,B1
2,below the threshold,B2

# Target: T1, APBA2_2, Q99767
# T1 sequence (Q99767 654-744, limits assumed, looked up): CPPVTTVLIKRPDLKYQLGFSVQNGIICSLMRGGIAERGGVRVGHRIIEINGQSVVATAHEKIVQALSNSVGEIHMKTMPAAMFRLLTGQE
# Assay: holdup assay
# Design: key: below the threshold = too weak to quantify, mostly under pKd 3.1 to 4
# Settings: plain residues with an end cap or a label only (N-terminal biotin on a linker: ado-ado)
row,pKd,Binder
1,below the threshold,B1
2,below the threshold,B2

# Target: T2, ARHGAP21, Q5T5U3
# T2 sequence (Q5T5U3 45-169, limits assumed, looked up): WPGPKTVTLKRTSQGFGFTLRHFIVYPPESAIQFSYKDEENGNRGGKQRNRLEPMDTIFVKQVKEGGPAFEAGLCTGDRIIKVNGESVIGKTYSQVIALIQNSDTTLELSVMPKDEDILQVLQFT
# Assay: holdup assay
# Design: key: below the threshold = too weak to quantify, mostly under pKd 3.1 to 4
# Settings: plain residues with an end cap or a label only (N-terminal biotin on a linker: ado-ado)
row,pKd,Binder
1,4.13,B1
2,below the threshold,B2

# Target: PARD3_3, Q8TEW0
# Sequence (Q8TEW0 582-685): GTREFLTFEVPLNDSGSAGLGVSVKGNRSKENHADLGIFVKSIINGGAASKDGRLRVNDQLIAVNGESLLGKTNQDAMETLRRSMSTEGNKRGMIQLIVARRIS
# Assay: holdup assay
# Design: key: below the threshold = too weak to quantify, mostly under pKd 3.1 to 4
# Settings: plain residues with an end cap or a label only (N-terminal biotin on a linker: ado-ado)
row,pKd,Binder
1,5.15,B1
2,below the threshold,B2

# Target: TJP2_1, Q9UDY2
# Sequence (Q9UDY2 24-128): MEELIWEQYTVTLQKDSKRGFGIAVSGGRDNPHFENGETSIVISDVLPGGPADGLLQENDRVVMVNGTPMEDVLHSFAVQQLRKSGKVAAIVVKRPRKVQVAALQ
# Assay: holdup assay
# Design: key: below the threshold = too weak to quantify, mostly under pKd 3.1 to 4
# Settings: plain residues with an end cap or a label only (N-terminal biotin on a linker: ado-ado)
row,pKd,Binder
1,below the threshold,B1
2,4.76,B2

# Target: T3, SNTA1, Q13424
# T3 sequence (Q13424 82-180, limits assumed, looked up): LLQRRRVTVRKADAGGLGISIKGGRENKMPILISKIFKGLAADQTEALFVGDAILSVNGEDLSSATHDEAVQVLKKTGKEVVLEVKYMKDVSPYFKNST
# Assay: holdup assay
# Design: key: below the threshold = too weak to quantify, mostly under pKd 3.1 to 4
# Settings: plain residues with an end cap or a label only (N-terminal biotin on a linker: ado-ado)
row,pKd,Binder
1,below the threshold,B1
2,below the threshold,B2

# Target: T4, HTRA3, P83110
# T4 sequence (P83110 354-453, limits assumed, looked up): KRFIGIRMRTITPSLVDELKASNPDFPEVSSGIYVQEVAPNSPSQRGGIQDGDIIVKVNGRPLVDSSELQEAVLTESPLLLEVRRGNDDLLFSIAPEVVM
# Assay: holdup assay
# Design: key: below the threshold = too weak to quantify, mostly under pKd 3.1 to 4
# Settings: plain residues with an end cap or a label only (N-terminal biotin on a linker: ado-ado)
row,pKd,Binder
1,4.08,B1
2,4.54,B2

# Target: T5, CARD11, Q9BXL7
# T5 sequence (Q9BXL7 662-765, limits assumed, looked up): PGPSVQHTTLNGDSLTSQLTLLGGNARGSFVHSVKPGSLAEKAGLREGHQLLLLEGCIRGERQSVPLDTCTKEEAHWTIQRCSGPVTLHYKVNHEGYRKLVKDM
# Assay: holdup assay
# Design: key: below the threshold = too weak to quantify, mostly under pKd 3.1 to 4
# Settings: plain residues with an end cap or a label only (N-terminal biotin on a linker: ado-ado)
row,pKd,Binder
1,below the threshold,B1
2,below the threshold,B2

# Target: TJP1_2, Q07157
# Sequence (Q07157 181-274): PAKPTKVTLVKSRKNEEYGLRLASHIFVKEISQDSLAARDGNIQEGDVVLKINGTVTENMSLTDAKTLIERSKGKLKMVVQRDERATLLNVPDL
# Assay: holdup assay
# Design: key: below the threshold = too weak to quantify, mostly under pKd 3.1 to 4
# Settings: plain residues with an end cap or a label only (N-terminal biotin on a linker: ado-ado)
row,pKd,Binder
1,3.65,B1
2,below the threshold,B2

# Target: T6, PARD3B_1, Q8TEW8
# T6 sequence (Q8TEW8 196-299, limits assumed, looked up): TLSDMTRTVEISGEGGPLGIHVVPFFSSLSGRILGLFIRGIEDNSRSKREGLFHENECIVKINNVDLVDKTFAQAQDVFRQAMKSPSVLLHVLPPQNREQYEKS
# Assay: holdup assay
# Design: key: below the threshold = too weak to quantify, mostly under pKd 3.1 to 4
# Settings: plain residues with an end cap or a label only (N-terminal biotin on a linker: ado-ado)
row,pKd,Binder
1,4.1,B1
2,below the threshold,B2

# Target: T7, PDZD7_3, Q9H5P4
# T7 sequence (Q9H5P4 857-944, limits assumed, looked up): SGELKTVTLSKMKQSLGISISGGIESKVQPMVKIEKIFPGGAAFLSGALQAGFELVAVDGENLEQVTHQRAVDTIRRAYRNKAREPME
# Assay: holdup assay
# Design: key: below the threshold = too weak to quantify, mostly under pKd 3.1 to 4
# Settings: plain residues with an end cap or a label only (N-terminal biotin on a linker: ado-ado)
row,pKd,Binder
1,3.55,B1
2,3.88,B2

# Target: GORASP1, Q9BQQ3
# Sequence (Q9BQQ3 1-208): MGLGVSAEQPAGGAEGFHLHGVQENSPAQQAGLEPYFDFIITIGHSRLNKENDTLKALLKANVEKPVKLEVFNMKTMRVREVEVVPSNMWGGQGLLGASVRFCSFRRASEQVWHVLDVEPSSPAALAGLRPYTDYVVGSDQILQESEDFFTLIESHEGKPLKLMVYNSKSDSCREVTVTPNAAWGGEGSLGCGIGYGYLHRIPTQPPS
# Assay: holdup assay
# Design: key: below the threshold = too weak to quantify, mostly under pKd 3.1 to 4
# Settings: plain residues with an end cap or a label only (N-terminal biotin on a linker: ado-ado)
row,pKd,Binder
1,4.72,B1
2,3.9,B2

# Target: T8, FRMPD1, Q5SYB0
# T8 sequence (Q5SYB0 52-145, limits assumed, looked up): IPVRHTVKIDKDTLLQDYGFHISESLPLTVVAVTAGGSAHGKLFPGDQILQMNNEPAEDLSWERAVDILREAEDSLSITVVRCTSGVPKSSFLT
# Assay: holdup assay
# Design: key: below the threshold = too weak to quantify, mostly under pKd 3.1 to 4
# Settings: plain residues with an end cap or a label only (N-terminal biotin on a linker: ado-ado)
row,pKd,Binder
1,below the threshold,B1
2,below the threshold,B2

# Target: LIMK2, P53671
# Sequence (P53671 143-248): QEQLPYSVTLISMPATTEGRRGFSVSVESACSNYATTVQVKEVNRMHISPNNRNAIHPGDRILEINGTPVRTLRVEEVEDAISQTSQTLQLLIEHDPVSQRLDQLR
# Assay: holdup assay
# Design: key: below the threshold = too weak to quantify, mostly under pKd 3.1 to 4
# Settings: plain residues with an end cap or a label only (N-terminal biotin on a linker: ado-ado)
row,pKd,Binder
1,below the threshold,B1
2,below the threshold,B2

# Target: T9, DFNB31_1, Q9P202
# T9 sequence (Q9P202 135-233, limits assumed, looked up): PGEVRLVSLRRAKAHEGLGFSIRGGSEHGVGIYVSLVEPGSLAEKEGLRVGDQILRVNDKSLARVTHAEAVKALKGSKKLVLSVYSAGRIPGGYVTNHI
# Assay: holdup assay
# Design: key: below the threshold = too weak to quantify, mostly under pKd 3.1 to 4
# Settings: plain residues with an end cap or a label only (N-terminal biotin on a linker: ado-ado)
row,pKd,Binder
1,below the threshold,B1
2,below the threshold,B2

# Target: SCRIB_1, Q14160
# Sequence (Q14160 718-814): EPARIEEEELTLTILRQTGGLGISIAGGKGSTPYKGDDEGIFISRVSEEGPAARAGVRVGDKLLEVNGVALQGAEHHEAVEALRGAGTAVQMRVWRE
# Assay: holdup assay
# Design: key: below the threshold = too weak to quantify, mostly under pKd 3.1 to 4
# Settings: plain residues with an end cap or a label only (N-terminal biotin on a linker: ado-ado)
row,pKd,Binder
1,below the threshold,B1
2,below the threshold,B2

# Target: GRIP2_7, Q9C0E4
# Sequence (Q9C0E4 934-1023): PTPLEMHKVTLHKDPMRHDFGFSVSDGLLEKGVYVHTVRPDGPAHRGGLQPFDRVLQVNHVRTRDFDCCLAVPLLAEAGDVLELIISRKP
# Assay: holdup assay
# Design: key: below the threshold = too weak to quantify, mostly under pKd 3.1 to 4
# Settings: plain residues with an end cap or a label only (N-terminal biotin on a linker: ado-ado)
row,pKd,Binder
1,below the threshold,B1
2,3.81,B2

# Target: GRIP2_3, Q9C0E4
# Sequence (Q9C0E4 238-339): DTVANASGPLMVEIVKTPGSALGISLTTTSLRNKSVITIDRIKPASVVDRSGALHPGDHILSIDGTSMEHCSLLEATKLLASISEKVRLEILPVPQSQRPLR
# Assay: holdup assay
# Design: key: below the threshold = too weak to quantify, mostly under pKd 3.1 to 4
# Settings: plain residues with an end cap or a label only (N-terminal biotin on a linker: ado-ado)
row,pKd,Binder
1,below the threshold,B1
2,below the threshold,B2

# Target: NHERF4_2, Q86UT5
# Sequence (Q86UT5 220-308): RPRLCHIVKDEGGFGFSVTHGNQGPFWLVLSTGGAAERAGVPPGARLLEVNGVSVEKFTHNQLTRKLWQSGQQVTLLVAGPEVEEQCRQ
# Assay: holdup assay
# Design: key: below the threshold = too weak to quantify, mostly under pKd 3.1 to 4
# Settings: plain residues with an end cap or a label only (N-terminal biotin on a linker: ado-ado)
row,pKd,Binder
1,3.51,B1
2,below the threshold,B2

# Target: T10, SIPA1L2, Q9P2F8
# T10 sequence (Q9P2F8 945-1036, limits assumed, looked up): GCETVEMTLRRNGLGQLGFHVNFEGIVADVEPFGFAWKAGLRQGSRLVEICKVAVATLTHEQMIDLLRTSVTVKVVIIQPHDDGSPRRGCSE
# Assay: holdup assay
# Design: key: below the threshold = too weak to quantify, mostly under pKd 3.1 to 4
# Settings: plain residues with an end cap or a label only (N-terminal biotin on a linker: ado-ado)
row,pKd,Binder
1,below the threshold,B1
2,3.73,B2

# Target: T11, DFNB31_3, Q9P202
# T11 sequence (Q9P202 811-907, limits assumed, looked up): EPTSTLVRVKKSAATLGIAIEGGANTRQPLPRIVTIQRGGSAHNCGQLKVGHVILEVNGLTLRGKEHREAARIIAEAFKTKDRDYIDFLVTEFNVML
# Assay: holdup assay
# Design: key: below the threshold = too weak to quantify, mostly under pKd 3.1 to 4
# Settings: plain residues with an end cap or a label only (N-terminal biotin on a linker: ado-ado)
row,pKd,Binder
1,3.86,B1
2,3.99,B2

# Target: T12, TJP3_3, O95049
# T12 sequence (O95049 375-456, limits assumed, looked up): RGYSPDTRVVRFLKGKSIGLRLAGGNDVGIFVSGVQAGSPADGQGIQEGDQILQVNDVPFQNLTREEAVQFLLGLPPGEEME
# Assay: holdup assay
# Design: key: below the threshold = too weak to quantify, mostly under pKd 3.1 to 4
# Settings: plain residues with an end cap or a label only (N-terminal biotin on a linker: ado-ado)
row,pKd,Binder
1,below the threshold,B1
2,below the threshold,B2

# Target: T13, SNTG1, Q9NSN8
# T13 sequence (Q9NSN8 52-150, limits assumed, looked up): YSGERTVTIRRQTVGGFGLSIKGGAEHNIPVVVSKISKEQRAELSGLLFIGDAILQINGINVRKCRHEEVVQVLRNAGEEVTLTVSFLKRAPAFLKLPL
# Assay: holdup assay
# Design: key: below the threshold = too weak to quantify, mostly under pKd 3.1 to 4
# Settings: plain residues with an end cap or a label only (N-terminal biotin on a linker: ado-ado)
row,pKd,Binder
1,below the threshold,B1
2,3.48,B2

# Target: MAGI1_2, Q96QZ7
# Sequence (Q96QZ7 456-580): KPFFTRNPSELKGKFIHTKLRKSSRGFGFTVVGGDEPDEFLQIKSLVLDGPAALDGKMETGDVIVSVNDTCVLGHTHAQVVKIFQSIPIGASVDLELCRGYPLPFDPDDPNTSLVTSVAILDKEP
# Assay: holdup assay
# Design: key: below the threshold = too weak to quantify, mostly under pKd 3.1 to 4
# Settings: plain residues with an end cap or a label only (N-terminal biotin on a linker: ado-ado)
row,pKd,Binder
1,below the threshold,B1
2,5.12,B2
